Tested on: AMPK, active (upstate) protein

Substance: PP2Cε protein (in vitro assay)
- dephosphorylation of AMPK: the dephosphorylation of AMPK with PP2Cε occurs concentration-dependently

Reference: patent US20090094709
